Results published in publication PMC6137059.

target: TcpK (Clostridium perfringens (plasmid pCW3)) (UniProt Q1PLI2); experiment: SPR; conditions: SPR: 10 mM HEPES pH 7.4, 200 mM NaCl, 3 mM EDTA, 0.05% Tween 20, 20 C

Row | Sequence | binding signal | Kd
1 | AAGGAACTTTACAGGGAACTTTA (double strand) [R2L9] | 100 % Rmax | 
2 | AAGGAACTTTACAGGGAACTTTAAAAATTT (double strand) [oriT#1 (SPR)] |  | 521 nM
3 | AAGGAACTTTACAGGGAACTTTA (double strand) [oriTmin23 (SPR)] |  | 360 nM
4 | AAGGAACTTTACAGGGAACTTTAAAAATTTAAATTGATA (double strand) [R2L1] | 100 % Rmax | 
5 | AAGGAACTTTACAAGGAACTTTA (double strand) [linker CAA] | 25 % Rmax | 
6 | AAGGAACTTTACAGGGAACTT (double strand) [R2L10] | 55 % Rmax | 
7 | ACAGGGAACTTTAAAAATTTAAATTGATAT (double strand) [oriT#2 (SPR)] |  | 2580 nM
